From PMC6547619 (2019)

B1: E. coli rBAG3 (Abcam) (natural protein)
chain: not shown
B2: BAG3-H4L2 (antibody, V domains shown)
VH: EVQLVQSGAEVKKPGATVKISCKVSGFNIKDTYMYWVQQAPGKGLEWMGGVDPANGNTRYDPKFQGRVTITADTSTDTAYMELSSLRSEDTAVYYCARDGAMDYWGQGTLVTVSS
VL: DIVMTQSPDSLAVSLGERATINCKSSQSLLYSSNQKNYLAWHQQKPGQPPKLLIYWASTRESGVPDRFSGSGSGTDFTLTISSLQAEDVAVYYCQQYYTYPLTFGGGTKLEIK
B3: BAG3-H2L4 (antibody, V domains shown)
VH: QVQLVQSGAEVKKPGASVKVSCKASGFNIKDTYMYWVRQAPGQGLEWMGGVDPANGNTRYDPKFQGRVTLTRDTSTSTVYMELSSLRSEDTAVYYCGRDGAMDYWGQGTLVTVSS
VL: DIVMTQSPDSLAVSLGERATMSCKSSQSLLYSSNQKNYLAWHQQKPGQPPKLLIYWASTRESGVPDRFSGSGSGTDFTLTISSLQAEDLAIYYCQQYYTYPLTFGAGTKLEIK

What was measured:
Assay in all cases: SPR
[1] = molecular target: BAG3-H2L2
[2] = molecular target: BAG3-H3L2
[3] = molecular target: BAG3-H2L3
[4] = molecular target: BAG3-H1L3
[5] = molecular target: BAG3-H1L4
[6] = molecular target: BAG3-H1L2
[7] = molecular target: BAG3-H4L4
[8] = molecular target: BAG3-H3L4
[9] = molecular target: BAG3-H3L3
[10] = molecular target: BAG3-H4L3
[11] = molecular target: B1

Kd [1] [nM]	Kd [2] [nM]	Kd [3] [nM]	Kd [4] [nM]	Kd [5] [nM]	Kd [6] [nM]	Kd [7] [nM]	Kd [8] [nM]	Kd [9] [nM]	Kd [10] [nM]	Kd [11] [nM]	Binder
2.63	1.78	1.98	2.83	2.34	2.84	1.72	1.7	1.61	1.98	–	B1
–	–	–	–	–	–	–	–	–	–	2.02	B2
–	–	–	–	–	–	–	–	–	–	2.04	B3
